Source: patent publication US20030219848A1 (DISCOVERX, published 2003)

Biological target: enzyme acceptor (EA) fragment of β-galactosidase (UniProt P00722 2-1024 = β-galactosidase, limits assumed)
Assay: cell-based or functional assay

Sequence of enzyme acceptor (EA) fragment of β-galactosidase (P00722 other isoform, or with tags, fused parts or gaps limits assumed): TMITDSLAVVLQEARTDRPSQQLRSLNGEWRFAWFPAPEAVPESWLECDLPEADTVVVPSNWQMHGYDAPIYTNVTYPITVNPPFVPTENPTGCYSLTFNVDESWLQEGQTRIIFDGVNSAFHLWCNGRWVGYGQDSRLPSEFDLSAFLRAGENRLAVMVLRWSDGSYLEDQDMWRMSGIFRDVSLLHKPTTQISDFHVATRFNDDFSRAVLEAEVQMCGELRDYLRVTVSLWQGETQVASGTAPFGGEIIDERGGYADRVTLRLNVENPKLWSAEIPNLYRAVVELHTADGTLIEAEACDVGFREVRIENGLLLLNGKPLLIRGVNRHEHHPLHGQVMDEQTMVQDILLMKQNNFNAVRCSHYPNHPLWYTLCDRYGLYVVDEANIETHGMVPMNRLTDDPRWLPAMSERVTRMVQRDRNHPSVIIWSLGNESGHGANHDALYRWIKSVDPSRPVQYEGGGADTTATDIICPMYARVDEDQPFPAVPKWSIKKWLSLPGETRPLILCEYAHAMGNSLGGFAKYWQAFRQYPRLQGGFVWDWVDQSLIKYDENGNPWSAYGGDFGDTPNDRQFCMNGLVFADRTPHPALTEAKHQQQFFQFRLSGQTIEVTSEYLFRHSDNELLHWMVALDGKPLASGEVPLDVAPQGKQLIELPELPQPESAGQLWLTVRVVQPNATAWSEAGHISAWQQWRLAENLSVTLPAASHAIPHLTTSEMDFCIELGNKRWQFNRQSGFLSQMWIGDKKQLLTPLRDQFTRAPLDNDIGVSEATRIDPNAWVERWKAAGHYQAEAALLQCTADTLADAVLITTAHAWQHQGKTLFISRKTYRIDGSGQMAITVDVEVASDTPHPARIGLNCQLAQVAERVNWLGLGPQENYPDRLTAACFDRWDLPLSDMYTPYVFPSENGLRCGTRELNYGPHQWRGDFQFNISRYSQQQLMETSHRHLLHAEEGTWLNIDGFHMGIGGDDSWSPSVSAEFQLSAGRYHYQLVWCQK

Row | Binder | complementation activity (β-galactosidase activity after ED + EA incubation) relative to native 90 mer ED 28 (SEQ ID 17), ED 0.0123 nM, 60 min | complementation activity relative to native 90 mer ED 28 (SEQ ID 17), at the same concentration (0.0123 nM)
1 | SLAVVLQRRDWENPGVTQLNRLAAHPPFASWRNSEEA [37 mer ED (SEQ ID NO 1), short enzyme donor fragment of β-galactosidase] | 45% | 
2 | SLAVVLQRRDWENPGVTQLNKLAAHPPFASWRNSEEARTDCPSQQL [46 mer ED (SEQ ID NO 10)] |  | 72%
